The experiment deals with Human recombinant p65 protein (SinoBiological 12054-H09E) (human) (UniProt Q04206). Kind of experiment: BLI; Forte-Bio Octet Red; anti-p65 Ab (5 μg/mL) captured on Protein A biosensors, 25 μg/mL recombinant p65 bound to it, ICP22 in solution at 62.5, 125, 250, 500 or 1000 nM; PBS. (In general: In BLI a coated tip is dipped into the sample, and binding shifts an interference pattern.)

Here are results for 1 substance from PMC9538160.

For orientation: Kd means the constant that tells how readily two partners part at equilibrium.

Chain of UniProt Q04206 (Q04206 whole entry, stated change not applied): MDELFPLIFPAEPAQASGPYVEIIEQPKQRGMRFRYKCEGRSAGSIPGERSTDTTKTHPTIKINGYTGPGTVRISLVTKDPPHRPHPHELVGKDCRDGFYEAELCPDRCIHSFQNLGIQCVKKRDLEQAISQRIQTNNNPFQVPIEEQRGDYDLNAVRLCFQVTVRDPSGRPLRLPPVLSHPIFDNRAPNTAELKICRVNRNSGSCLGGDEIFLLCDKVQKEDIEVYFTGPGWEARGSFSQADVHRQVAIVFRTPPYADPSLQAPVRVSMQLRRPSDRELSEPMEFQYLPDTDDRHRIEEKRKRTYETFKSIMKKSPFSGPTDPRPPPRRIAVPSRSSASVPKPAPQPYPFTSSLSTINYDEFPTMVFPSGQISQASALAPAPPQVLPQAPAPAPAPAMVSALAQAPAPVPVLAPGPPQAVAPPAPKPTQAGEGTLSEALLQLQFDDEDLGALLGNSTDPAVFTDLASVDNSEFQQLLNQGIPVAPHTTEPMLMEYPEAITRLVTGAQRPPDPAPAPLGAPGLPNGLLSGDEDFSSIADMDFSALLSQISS

As to “HA-tagged HSV-2 ICP22, purified (from UniProt P14379 1-197) (natural protein)”, the Kd came to 0.218 µM.
